Results as given in patent US20200223921A1 (TRUEBINDING, published 2020).

B1: mouse TIM-3 Fc protein (R&D systems) (Fc fusion, UniProt Q8VIM0 20-191, looked up)
chain: RSLENAYVFEVGKNAYLPCSYTLSTPGALVPMCWGKGFCPWSQCTNELLRTDERNVTYQKSSRYQLKGDLNKGDVSLIIKNVTLDDHGTYCCRIQFPGLMNDKKLELKLDIKAAKVTPAQTAHGDSTTASPRTLTTERNGSETQTLVTLHNNNGTKISTWADEIKDSGETIR
notes: Bought; also called mTIM-3 Fc; mTIM-3-Fc; not shown: Fc

How the values were obtained:
[1] = target: mouse Gal3 (endogenous, on B16F10 tumor cells and RAW264.7 macrophages) (mouse) (UniProt P16110); assay: flow cytometry on B16F10 cells, rat anti mouse Gal3 PE against control rat IgG PE
[2] = target: T1, Flag-tagged human Gal3 protein stably expressed on A20 cells (A20 Gal3 cells) (human, UniProt P17931 2-250); assay: flow cytometry: mTIM-3 Fc on live A20 Gal3 cells, anti-hFc APC detection (FIG. 4B, row 2)
T1 construct: Mouse B lymphoma A20 cells transfected with a construct encoding Flag-tagged human Gal3; also called A20 cells overexpressing human Gal3; hGal3; not shown: Flag tag
Method: Flow cytometry analysis was performed to evaluate the binding between TIM-3 and Gal3 using A20 cells. A20 Gal3 cells were incubated with 10% FBS HBSS solution that contains with or without mouse TIM-3 Fc on ice for 20 minutes. There are five experimental groups: in group 1, A20 Gal3 cells were incubated without mTIM-3 Fc protein as control; in group 2, A20 Gal3 cells were incubated with mTIM-3 Fc protein; in groups 3, 4, 5, in addition to mTIM-3 Fc protein, anti-mouse TIM-3 polyclonal antibody (R&D System, Minneapolis, Minn.) (group 3), monoclonal antibody RMT3-23 (Bio X cell, West Lebanon, N.H.) (group 4), monoclonal antibody 215015 (R&D Systems) (group 5), were also added to test if these antibodies could block Gal3 and Tim3 binding. For blocking, cells were incubated with 10% FBS HBSS containing mentioned antibodies, then were added with 10% FBS HBSS containing mTIM-3 Fc for 20 min. Samples were centrifuged and pellet were added 10% FBS HBSS containing APC conjugated anti-hFc antibodies (Jackson ImmunoResearch, West Grove, Pa.) for 20 min. After spinning, live/dead cells were stained with Violet dead cell stain kit (Life Technologies). Stained cells were subjected to flow analysis.

[3] = target: human Gal9 protein (R&D systems) (human) (UniProt O00182); assay: ELISA: plate coated with hGal9, mTIM-3 Fc with or without 25 mM alpha-lactose
[4] = target: B1; assay: ELISA: plate coated with mGal3 at 10 ug/ml, mTIM-3 Fc (FIGS. 5A-5C)
Method: In FIG. 5A, different anti Gal3 antibodies, i.e. mGal3 polyclonal antibody (R&D sytems), mAb IMT001, mAb M3/38 (Thermofisher Scientific) (FIG. 5A), were added to well that has been coated with Gal3. The antibodies were incubated for 10 minutes and mouse TIM-3 Fc were then added to the plates and incubated for an additional one-hour incubation. Plates were then washed for three times and followed by incubation with anti human-IgG-HRP (Jackson ImmunoResearch) for 1 h at room temperature. The color was developed with TMB subtract (GeneTex, Irvine, Calif.) after three time washes with TBST and the reaction was terminated with 1N HCl. The optical density (OD) was read at 450 nm. The results were expressed as the average OD of duplicates±SD.
In FIG. 5B, mouse Gal3 protein (BioLegend) in PBS (groups 1 and 2) or PS (Sigma-Aldrich, St. Louis, Mo.) in ethanol (groups 3 and 4) were coated on the plates and incubated at 4° C. overnight. Anti mTIM-3 mouse antibodies, mAb RMT3-23 (Bio X cell), was added to the coated plates for groups 2 and 4 only. Secondary anti human-IgG-HRP antibody and substrates were added as described above to detect the binding of the mTIM-3 to mGal3 or PS. […]

T1 sequence (P17931 2-250): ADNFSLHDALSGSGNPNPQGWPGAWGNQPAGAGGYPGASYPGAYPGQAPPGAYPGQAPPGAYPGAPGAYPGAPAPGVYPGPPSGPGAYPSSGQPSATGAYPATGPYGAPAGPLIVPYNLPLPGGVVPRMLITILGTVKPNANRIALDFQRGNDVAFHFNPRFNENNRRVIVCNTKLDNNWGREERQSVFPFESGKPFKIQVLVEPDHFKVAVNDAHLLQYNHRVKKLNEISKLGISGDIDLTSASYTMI
Sequence of human Gal9 protein (R&D systems) (human) (O00182 other isoform, or with tags, fused parts or gaps limits assumed): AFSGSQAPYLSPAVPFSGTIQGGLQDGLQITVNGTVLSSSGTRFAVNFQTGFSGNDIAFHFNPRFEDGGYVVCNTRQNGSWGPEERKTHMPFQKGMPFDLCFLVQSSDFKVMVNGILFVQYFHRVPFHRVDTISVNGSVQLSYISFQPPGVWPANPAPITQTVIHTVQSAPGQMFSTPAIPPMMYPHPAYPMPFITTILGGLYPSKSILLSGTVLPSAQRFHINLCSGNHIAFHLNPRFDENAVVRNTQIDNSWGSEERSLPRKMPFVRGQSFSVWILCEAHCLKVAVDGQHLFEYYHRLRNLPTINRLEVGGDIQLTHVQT

In the case of “rat anti mouse Gal3 PE antibody (Thermo Fisher Scientific)”, the fold of MFI over isotype control antibody [1] is reported as 10 fold.

B1 was tested, and the binding result [2] was “binds” and the fold reduction in ELISA signal with 25 mM alpha-lactose against no lactose [3] was over 10 fold.

B2: mouse Gal3 protein (BioLegend) (ligand)
chain: ADSFSLNDALAGSGNPNPQGYPGAWGNQPGAGGYPGAAYPGAYPGQAPPGAYPGQAPPGAYPGQAPPSAYPGPTAPGAYPGPTAPGAYPGSTAPGAFPGQPGAPGAYPSAPGGYPAAGPYGVPAGPLTVPYDLPLPGGVMPRMLITIMGTVKPNANRIVLDFRRGNDVAFHFNPRFNENNRRVIVCNTKQDNNWGKEERQSAFPFESGKPFKIQVLVEADHFKVAVNDAHLLQYNHRMKNLREISQLGISGDITLTSANHAMI
notes: Bought recombinant protein coated on ELISA plates; also called mGal3
B2: binds [4].
